Measured values published in US7635583B2, “Protein crystal comprising the processivity clamp factor of DNA polymerase and a ligand, and its uses” (Centre National de la Recherche Scientifique, priority 2003, dated 2009).

Legend:
[1] = biological target: T1, Pol IV DNA polymerase (Escherichia coli, UniProt Q47155); experiment: intrinsic (β-independent) activity of Pol IV, primer extension on β free primer/template; assay type: biochemical; details: peptide 1, 10, 25 μM, Pol IV 1.5 nM
T1 sequence (Q47155 1-351): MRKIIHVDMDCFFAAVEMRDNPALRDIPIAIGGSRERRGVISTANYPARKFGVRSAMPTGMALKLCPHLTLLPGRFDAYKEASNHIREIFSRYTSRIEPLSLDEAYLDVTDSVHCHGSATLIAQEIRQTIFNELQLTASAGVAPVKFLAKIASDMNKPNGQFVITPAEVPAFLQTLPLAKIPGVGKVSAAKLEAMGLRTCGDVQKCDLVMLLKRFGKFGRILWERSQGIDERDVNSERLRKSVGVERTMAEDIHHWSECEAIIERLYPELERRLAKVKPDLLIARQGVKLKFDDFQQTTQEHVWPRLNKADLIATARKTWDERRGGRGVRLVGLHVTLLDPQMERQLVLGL
Experimental: FIG. 3A represents the migration pattern of an electrophoresis gel. β free (lanes 1-4 and 9-12) or β loaded (lanes 5-8 and 13-16) labelled primer/template hybrids are incubated with increasing amounts of control peptide (CLIP) (lanes 1-8) or P16 peptide (lanes 9-16). Concentrations of peptides are as follows: 0 μM, lanes 1, 5, 9 and 13; 1 μM, lanes 2, 6, 10 and 14; 10 μM, lanes 3, 7, 11 and 15; 25 μM, lanes 4, 8, 12 and 16. This mixture is then submitted to the enzymatic activity of Pol IV (1.5 nM) in the presence of each four dNTPs for 1 minute at room temperature. Beside the overall increase in DNA synthesis activity, the β-dependent activity of the polymerase is characterised by the apparition of synthesis products longer than 12 nucleotides (β dependent synthesis), β independent synthesis is characterised by products shorter than 12 nucleotides. […] FIG. 3B represents the quantitative analysis of the relative amounts of each β-independent (incorporation of 1 up to 12 nucleotides) and β-dependent (12 and more nucleotides incorporation) activities observed in lanes 5-8 and 13-16. Black and white rectangles represent the ratio of β-dependent to β-independent polymerase activities (vertical axis) in the presence of specified amounts of CLIP and P16 peptides (horizontal axis), respectively. […]

[2] = biological target: β clamp-Pol IV DNA polymerase interaction (Escherichia coli, UniProt P0A988); details: Pol IV 1.5 nM; for effect on β-dependent Pol IV activity: peptide 1, 10, 25 μM
Sequence of β clamp-Pol IV DNA polymerase interaction (P0A988 whole entry): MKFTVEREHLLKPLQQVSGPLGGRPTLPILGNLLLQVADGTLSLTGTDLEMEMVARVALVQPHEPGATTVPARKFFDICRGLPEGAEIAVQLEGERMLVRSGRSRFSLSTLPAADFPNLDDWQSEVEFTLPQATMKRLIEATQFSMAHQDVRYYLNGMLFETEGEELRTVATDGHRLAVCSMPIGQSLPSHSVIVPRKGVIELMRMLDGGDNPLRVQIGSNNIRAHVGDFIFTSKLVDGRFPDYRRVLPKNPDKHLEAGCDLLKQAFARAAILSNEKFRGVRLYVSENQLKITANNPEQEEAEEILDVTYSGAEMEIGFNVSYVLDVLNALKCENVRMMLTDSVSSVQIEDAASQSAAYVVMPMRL
Experimental: FIG. 3A represents the migration pattern of an electrophoresis gel. β free (lanes 1-4 and 9-12) or β loaded (lanes 5-8 and 13-16) labelled primer/template hybrids are incubated with increasing amounts of control peptide (CLIP) (lanes 1-8) or P16 peptide (lanes 9-16). Concentrations of peptides are as follows: 0 μM, lanes 1, 5, 9 and 13; 1 μM, lanes 2, 6, 10 and 14; 10 μM, lanes 3, 7, 11 and 15; 25 μM, lanes 4, 8, 12 and 16. This mixture is then submitted to the enzymatic activity of Pol IV (1.5 nM) in the presence of each four dNTPs for 1 minute at room temperature. Beside the overall increase in DNA synthesis activity, the β-dependent activity of the polymerase is characterised by the apparition of synthesis products longer than 12 nucleotides (β dependent synthesis), β independent synthesis is characterised by products shorter than 12 nucleotides. […] FIG. 3B represents the quantitative analysis of the relative amounts of each β-independent (incorporation of 1 up to 12 nucleotides) and β-dependent (12 and more nucleotides incorporation) activities observed in lanes 5-8 and 13-16. Black and white rectangles represent the ratio of β-dependent to β-independent polymerase activities (vertical axis) in the presence of specified amounts of CLIP and P16 peptides (horizontal axis), respectively. Decrease in this ratio value actually indicates a specific inhibition of the β-dependent polymerase activity.
(§1) Briefly, P16 peptide and a control peptide (CLIP) were diluted in 20 mM NaHCO3 at concentrations of 250, 100 and 10 pmol/μl. 5′ end radiolabelling, purification and annealing of synthetic primers were performed as previously described (Wagner et al., 1999).
All replication experiments (10 μl final volume) were carried out in buffer E (40 mM HEPES pH 7.5, 80 mM potassium glutamate, 160 μg/ml BSA, 16% glycerol, 0.016% NP40, 8 mM DTT). The 30/90 nucleotide hybrid was first incubated with single strand binding proteins (SSB; Sigma; 90 nM final concentration) in the presence of ATP (200 μM) and MgCl2 (7.5 mM) at 37° C. for 10 min. […]

[3] = biological target: β clamp-α subunit of DNA Polymerase III interaction (Escherichia coli, UniProt P0A988); details: peptide 1, 10, 25 μM; α subunit 6 nM
Sequence of β clamp-α subunit of DNA Polymerase III interaction (P0A988 whole entry): as above
Experimental: as §1
All replication experiments (10 μl final volume) were carried out in buffer E (40 mM HEPES pH 7.5, 80 mM potassium glutamate, 160 μg/ml BSA, 16% glycerol, 0.016% NP40, 8 mM DTT). The 30/90 nucleotide hybrid was first incubated with single strand binding proteins (SSB; Sigma; 90 nM final concentration) in the presence of ATP (200 μM) and MgCl2 (7.5 mM) at 37° C. for 10 min. When specified, the γ complex (1 nM final concentration) (gift from Dr. C. S. McHenry, Denver, USA), and the β clamp (5 nM as dimer final concentration) were added at that stage, and incubation was carried out at 37° C. for 10 min. Then, 7 μl of the mixture was added to 1 μl of either 20 mM NaHCO3 or 1 μl of peptide solution (1, 10 or 25 μM final concentration), incubated 20 min. at room temperature and farther 2 hours at 4° C.

Sequence | effect on intrinsic activity of Pol IV (distributive incorporation of one to up to 12 nucleotides) [1] | effect on β-dependent Pol IV activity [2] | effect on α subunit β-dependent activity [3] | decrease of β-dependent Pol IV activity (factor) ([2]; highest P16 concentration tested, 25 μM, β clamp 5 nM)
RPVKVTPNGAEDESAEAFPLEF (Control peptide) [CLIP, reference compound] | neither P16 nor CLIP peptides do affect | no effect | – | –
VTLLDPQMERQLVLGL (listed as Escherichia coli) [P16] | neither P16 nor CLIP peptides do affect | inhibits the β-dependent activity of Pol IV | dose dependent inhibition | around 30
